Source: patent US10144929B2, “Polypeptide inhibitors of Smad3 polypeptide activities” (Mayo Foundation for Medical Education and Research, priority 2016, dated 2018)
No end group written: not given here.

Biological target: T1, pSmad3 (Mus musculus, UniProt Q8BUN5)
T1 construct: endogenous in cells; host or cells: AKR-2B cells
Test: Nuclear import of pSmad3 (nuclear fractions Western, immunofluorescence) in AKR-2B cells
Assay type: cell-based
Details: 90 minutes transduction, TGFβ 5 ng/mL 1 hour
Experimental: FIGS. 1A-C. SH3 domain of sorting nexin 9 (SNX9) specifically binds pSmad3 and prevents nuclear import. (A) Cartoon depicting domains in full length (FL) SNX9 and constructs used for GST pull down assays. Lysates from AKR-2B cells untreated (−) or stimulated (+) for 45 minutes with 5 ng/mL TGFβ were incubated with GST beads or the indicated fusion polypeptides immobilized on GST beads. Bound polypeptides were eluted and assessed by Western analysis for pSmad3 or pSmad2. Cell lysate reflects signal obtained from 10 μg total protein. (B) AKR-2B cells were transduced for 90 minutes with the indicated concentrations of the TAT-SNX9(SH3) fusion polypeptides. […] Quantitation of nuclear pSmads was performed with Image J software and represents the mean+/−sd of two experiments (Right). […] Quantitation of nuclear Smad3 from 30 cells in each of two experiments (Right).
FIGS. 3A-E. Inhibition of Smad3 signaling by a defined region of the SH3 domain in SNX9. […] (B) Nuclear fractions were prepared and assessed as in FIG. 1B following transduction with the indicated TAT-SNX9(SH3) fusion polypeptide (Left). Quantitation (mean+/−sd) of nuclear pSmad2 or pSmad3 from 2 experiments (Right). (C) Immunofluorescence of nuclear Smad3 was determined as in FIG. 1C from 30 cells in each of two experiments in the absence (−) or presence (+) of 5 ng/mL TGFβ and the indicated TAT-SNX9(SH3) fusion polypeptide (1.5 μM). […]

T1 sequence (Q8BUN5 whole entry): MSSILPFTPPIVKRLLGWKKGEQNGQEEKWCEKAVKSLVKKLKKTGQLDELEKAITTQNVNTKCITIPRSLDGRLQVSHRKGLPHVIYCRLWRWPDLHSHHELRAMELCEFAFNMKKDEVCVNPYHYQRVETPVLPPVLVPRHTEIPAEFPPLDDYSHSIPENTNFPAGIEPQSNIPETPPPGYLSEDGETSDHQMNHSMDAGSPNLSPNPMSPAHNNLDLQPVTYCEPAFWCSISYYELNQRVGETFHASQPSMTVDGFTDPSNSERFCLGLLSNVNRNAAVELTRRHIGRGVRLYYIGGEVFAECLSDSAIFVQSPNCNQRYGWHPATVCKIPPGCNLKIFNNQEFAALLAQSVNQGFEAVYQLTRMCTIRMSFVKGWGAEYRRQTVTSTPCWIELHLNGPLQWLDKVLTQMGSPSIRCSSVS

“TAT-containing polypeptide encoding amino acids 27-42 of SNX9: 16 mer TAT-SNX9(SH3) fusion polypeptide, SNX9 amino acids 27-42; probably SH3-2-2 (SEQ ID NO:34) (IITITNPDVGGGWLEG; also: TAT cell-penetrating peptide fusion; UniProt Q9Y5X1 27-42, looked up, fragment)” was tested, and the “nuclear import of pSmad3” value was “activity similar to that obtained with SB431542”.
